# B1: EPORab - M2: hybridoma antibody clone, VH/VK in Table 10 (antibody, V domains shown)
# VH: QVQLVESGGGLVKPGGSLRLSCAASGFTFSDSYMSWIRQAPGKGLEWVSYISNSGSYMYYADSVKGRFTISRDNAKNSLYLQMNNLRAEDTAVYYCARDKLGIGDYWGQGTLVTVSS
# VL: DIQMTQSPSSLSASVGDRVTITCRASQGIRNDLGWFQQKPGKAPKRLIYAASRLQSGVPSRFSGSGSGTEFTLTISSLQPEDFATYCCLQHHTYPPTFGQGTKVEIK
# How the values were obtained:
# [1] = biological target: T1, 293T/EPOR/CD131 cells (Homo sapiens, UniProt P19235); assay: Staining of 293T/EPOR/CD131 cells with purified antibodies; assay type: binding
# T1 construct: expressed in transfected cells; host or cells: 293T cells, lentiviral transduction
# T1 sequence (P19235 25-508): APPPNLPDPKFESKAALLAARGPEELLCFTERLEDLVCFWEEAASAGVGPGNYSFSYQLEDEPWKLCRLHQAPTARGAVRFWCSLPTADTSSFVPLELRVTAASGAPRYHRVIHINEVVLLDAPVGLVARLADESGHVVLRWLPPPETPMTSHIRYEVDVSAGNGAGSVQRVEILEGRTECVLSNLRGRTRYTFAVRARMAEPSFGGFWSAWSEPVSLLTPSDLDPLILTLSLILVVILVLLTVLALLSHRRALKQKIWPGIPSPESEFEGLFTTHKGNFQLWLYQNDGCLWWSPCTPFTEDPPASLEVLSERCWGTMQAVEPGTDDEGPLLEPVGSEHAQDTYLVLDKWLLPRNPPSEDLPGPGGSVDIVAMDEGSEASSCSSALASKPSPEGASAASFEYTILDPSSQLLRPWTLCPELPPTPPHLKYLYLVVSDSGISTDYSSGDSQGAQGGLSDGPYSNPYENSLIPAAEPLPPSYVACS
# Description: (§1) The purified antibodies were used to stain the human leukemia UT-7 cells, 293T/EPOR, 293T/CD131, and 293T/EPOR/CD131 cells to confirm antigen binding. The UT-7 cells were maintained in Roswell Park Memorial Institute (RPMI) with 10% Fetal Bovine Serum (FBS) and 5 ng/ml of recombinant human GM-CSF (Peprotech®, Cat #300-03). The 293T cells expressing hEPOR, hCD131, or both were maintained in Dulbecco's Modified Eagle Medium (DMEM) with 10% FBS. 1×10^6 cells/ml were incubated with purified hybridoma clones M2 and M41 at a 3-fold dilution series starting from 20 μg/ml for 30 minutes at 4° C. After washing, the cells were incubated with PE labeled secondary antibody and subjected to flowcytometric analysis. […] The binding profiles of the 293T/EPOR/CD131 cells are similar except the peak MFIs around 1500, half of that of the 293T/EPOR cells (FIG. 29B).
# [2] = biological target: T2, 293T/EPOR cells (Homo sapiens, UniProt P19235); assay: Staining of 293T/EPOR cells with purified antibodies (flow cytometry); assay type: binding
# T2 construct: expressed in transfected cells; host or cells: 293T cells expressing hEPOR
# T2 sequence (P19235 25-508): T1 sequence (P19235 25-508)
# Description: as §1
# [3] = biological target: T3, EPOR (UT-7 cells) (Homo sapiens, UniProt P19235); assay: Flow-based phosphorylated Stat5 assay, blocking by anti-EPOR antibodies; assay type: cell-based; settings: 20 μg/ml antibody; 0.1 μg/ml recombinant human EPO
# T3 construct: endogenous in cells; host or cells: UT-7 human leukemia cells
# T3 sequence (P19235 25-508): T1 sequence (P19235 25-508)
# Description: EPOR activation leads to phosphorylation of Stat5. A flow-based assay on phosphorylated Stat5 was set up to test the blocking activities of anti-EPOR antibodies. The UT-7 cells were cultured without GM-CSF for overnight before the EPO stimulation. 3×10^6 cells/ml were incubated with 20 μg/ml of anti-EPOR for 15 minutes before stimulation with 0.1 μg/ml of recombinant human EPO (Peprotech®, Cat #100-64) for 10 minutes at 37° C. The cells were fixed immediately with fixation buffer (Cytofix™ buffer; BD Biosciences, Cat #554655) and permeabilized with methanol. After washing, cells were stained with PE labeled anti-Stat5 (BD Biosciences, Cat #612567) and subjected to flow cytometry analysis.
molecule,measurement,setting,value
B1,peak MFI,[1],around 1500
same,mean or median fluorescence intensity (MFI),"[2]; 27 ng/ml purified antibody, 293T/EPOR cells",~100%
same,binding to 293T/EPOR cells,[2]; 20 μg/ml purified antibody,robust binding activities
same,blocking of Stat5 phosphorylation,[3],complete blocking
